Source: US20260193348A1 (ANTENGENE BIOLOGICS, published 2026)
Numbering of substitutions follows the chain as printed. Names and notes keep the numbering of the source.

Key:
[1] = biological target: T1, CD3 on T cells / Jurkat cells (human, UniProt P07766 23-207; P04234 22-171; P09693 23-182); assay: FACS on CD3+ T cells isolated from normal donors
T1 construct: whole, on cells; Native CD3 complex on CD3+ T cells isolated from normal donors or on Jurkat cells; also called human CD3; CD3+ T cells
T1 sequence (P07766 23-207, chain 1 of 3): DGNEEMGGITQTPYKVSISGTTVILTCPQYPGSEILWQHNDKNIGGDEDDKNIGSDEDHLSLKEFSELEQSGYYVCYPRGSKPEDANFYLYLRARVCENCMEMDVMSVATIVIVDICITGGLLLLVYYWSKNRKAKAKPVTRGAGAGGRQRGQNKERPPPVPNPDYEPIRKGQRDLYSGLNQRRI
T1 sequence (P04234 22-171, chain 2 of 3): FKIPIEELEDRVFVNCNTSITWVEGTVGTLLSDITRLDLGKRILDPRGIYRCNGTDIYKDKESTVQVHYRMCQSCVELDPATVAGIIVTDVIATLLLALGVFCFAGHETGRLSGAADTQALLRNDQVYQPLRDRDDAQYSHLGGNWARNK
T1 sequence (P09693 23-182, chain 3 of 3): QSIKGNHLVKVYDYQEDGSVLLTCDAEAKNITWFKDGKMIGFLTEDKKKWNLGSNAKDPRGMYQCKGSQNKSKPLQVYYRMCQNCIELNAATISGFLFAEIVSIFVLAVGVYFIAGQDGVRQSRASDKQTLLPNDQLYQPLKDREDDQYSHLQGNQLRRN

[2] = biological target: T2, CD19 on NALM6 cells, Raji cells and primary B cells (human, UniProt P15391 20-556); assay: FACS on NALM6 cells expressing CD19 (FIG. 45A)
T2 construct: whole, on cells; Endogenous CD19 on human cell lines / donor B cells; also called NALM6 cells expressing CD19; Raji cells expressing CD19
T2 sequence (looked up): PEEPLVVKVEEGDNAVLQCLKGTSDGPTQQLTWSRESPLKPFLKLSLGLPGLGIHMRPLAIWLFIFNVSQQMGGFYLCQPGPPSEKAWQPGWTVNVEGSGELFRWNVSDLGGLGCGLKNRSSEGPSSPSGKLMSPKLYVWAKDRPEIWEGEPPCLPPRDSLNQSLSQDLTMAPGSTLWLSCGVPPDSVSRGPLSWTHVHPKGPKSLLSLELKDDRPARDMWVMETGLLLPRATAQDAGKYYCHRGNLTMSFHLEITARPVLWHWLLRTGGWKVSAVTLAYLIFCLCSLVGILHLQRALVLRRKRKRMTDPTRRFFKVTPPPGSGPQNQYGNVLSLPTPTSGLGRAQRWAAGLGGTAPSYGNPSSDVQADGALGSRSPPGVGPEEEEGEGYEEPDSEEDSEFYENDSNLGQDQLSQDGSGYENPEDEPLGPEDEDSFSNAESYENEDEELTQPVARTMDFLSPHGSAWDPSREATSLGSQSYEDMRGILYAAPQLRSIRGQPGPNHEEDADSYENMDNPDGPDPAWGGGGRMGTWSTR

[3] = biological target: T1, CD3 on T cells / Jurkat cells; assay: FACS on Jurkat cells expressing CD3
[4] = biological target: T2, CD19 on NALM6 cells, Raji cells and …; assay: FACS on NALM6 cells expressing CD19, another experiment (FIG. 45B)
Experimental: (§1) To evaluate the binding affinity of the generated bispecific antibodies to NALM6 cells, Raji cells, Primary B cells, DoHH2 cells, SU-DHL-1 cells and Jurkat cells, the NALM6 cells expressing CD19, Raji cells expressing CD19, Primary B cells, DoHH2 cells expressing CD20, SU-DHL-1 cells without expressing CD19 or CD20 and Jurkat cells expressing CD3 were stained by the test antibodies and the binding affinity was determined by FACS analysis. Primary B cells were isolated from healthy donors' PBMC by human B cell enrichment Kit (Stemcell #19054). The protocol of FACS analysis is described as follows: [0933] (a) The cells from each cell line above were harvested and centrifuged at 300 g for 5 min, and the supernatant were discarded. […] (b) The cells were washed 2 times with FACS buffer. [0935] (c) Step (a) was repeated. [0936] […] [0937] (e) Step (b) was repeated and the cells were resuspended with 100 μl/well diluted secondary antibody, and incubated at 4° C. for 45 minutes in the dark. [0938] (f) Step (b) was repeated and the cells were resuspended the cells with 150 μl/well FACS buffer and kept in dark for FACS analysis.

[5] = biological target: T2, CD19 on NALM6 cells, Raji cells and …; assay: FACS on primary B cells from healthy donors' PBMC (FIG. 45D)
Experimental: as §1

[6] = biological target: T2, CD19 on NALM6 cells, Raji cells and …; assay: FACS on Raji cells expressing CD19 (FIG. 45C)
Experimental: as §1

[7] = biological target: T3, GPRC5D on multiple myeloma cells (human, UniProt Q9NZD1 1-345); assay: FACS on MM.1S cells
T3 construct: whole, on cells; Endogenous GPRC5D on multiple myeloma cell lines; also called G-protein coupled receptor family C group 5 member D; MM.1S, MOLP-8, L363, RPMI8226 cells
T3 sequence (Q9NZD1 whole entry): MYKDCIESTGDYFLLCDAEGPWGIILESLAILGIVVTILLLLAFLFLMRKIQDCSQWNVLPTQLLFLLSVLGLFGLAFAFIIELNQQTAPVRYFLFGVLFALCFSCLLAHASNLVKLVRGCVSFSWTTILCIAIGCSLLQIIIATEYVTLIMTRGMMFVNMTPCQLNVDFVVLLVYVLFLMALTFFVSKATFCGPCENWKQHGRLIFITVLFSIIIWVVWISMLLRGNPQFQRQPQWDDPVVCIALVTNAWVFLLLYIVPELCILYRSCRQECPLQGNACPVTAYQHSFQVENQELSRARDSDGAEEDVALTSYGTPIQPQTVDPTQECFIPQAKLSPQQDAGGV

[8] = biological target: T1, CD3 on T cells / Jurkat cells; assay: FACS on Jurkat cells
[9] = biological target: T3, GPRC5D on multiple myeloma cells; assay: FACS on multiple myeloma cell lines

B1: Bis-GD2-Fab3 (bispecific antibody, V domains shown)
VH 1: QVQLVESGPGVVQPGRSLRISCAVSGFSVTNYGVHWVRQPPGKGLEWLGVIWAGGITNYNSAFMSRLTISKDNSKNTVYLQMNSLRAEDTAMYYCASRGGHYGYALDYWGQGTLVTVSS
VL 1: EIVMTQTPATLSVSAGERVTITCKASQSVSNDVTWYQQKPGQAPRLLIYSASNRYSGVPARFSGSGYGTEFTFTISSVQSEDFAVYFCQQDYSSFGQGTKLEIK
VH 2: EVQLQLSGPELVKPGASVKMSCKASGYTFSSYVIHWVKQKPGQGLEWIGYINPYNDVIKYNEKFKGKATLTSDKSSSTAYMELSSLTSEDSAVYYCARDSYYSYDGFAYWGQGTLVTVSA
VL 2: QIVLTQSPAIMSASPGEKVTMTCSASSSVSYMHWYQQKSGTSPKRWIYDTSKLASGVPARFSGSGSGTSYSLTISSMEAEDAATYYCQQWSSNPPTFGGGTKVEIK
notes: Fab3 format of WO2019154890A1: two anti-GD2 Fabs (humanized 3F8) and one anti-CD3 Fab (40-C12-C10-E9); also called Fab3 GD2xCD3 bispecific antibody
B1: binds [1].

B2: ATG201-D105R-19B (bispecific antibody, human IgG1, kappa, L234A L235A)
heavy 1: not shown
heavy 2: QVQLQQSGAELVRPGSSVKISCKASGYAFSSYWMNWVKQRPGQGLEWIGQIWPGDGDTNYNGKFKGKATLTADESSSTAYMQLSSLASEDSAVYFCARRETTTVGRYYYAMDYWGQGTTVTVSSASTKGPSVFPLAPSSKSTSGGTAALGCLVKDYFPEPVTVSWNSGALTSGVHTFPAVLQSSGLYSLSSVVTVPSSSLGTQTYICNVNHKPSNTKVDKKVEPKSCGGGGSGGGGSEVQLVQSGAEVKKPGSSVKVSCKASGYTFSSYVIHWVRQAPGQCLEWMGYINPYNDVIKYNEKFKGRVTLTSDKSTSTAYMELSSLRSEDTAVYYCARDSYYSYRGFAYWGQGTLVTVSSGGGGSGGGGSGGGGSGGGGSEIVLTQSPDFQSVTPKEKVTITCSASSSVSYMHWYQQKPDQSPKRLIYDTSKLASGVPSRFSGSGSGTDFTLTINSLEAEDAATYYCQQWSSNPPTFGCGTKVEIKGGGGSGGGGSDKTHTCPPCPAPEAAGGPSVFLFPPKPKDTLMISRTPEVTCVVVDVSHEDPEVKFNWYVDGVEVHNAKTKPREEQYNSTYRVVSVLTVLHQDWLNGKEYKCKVSNKALPAPIEKTISKAKGQPREPQVCTLPPSREEMTKNQVSLSCAVKGFYPSDIAVEWESNGQPENNYKTTPPVLDSDGSFFLVSKLTVDKSRWQQGNVFSCSVMHEALHNHYTQKSLSLSPGK
light: not shown
notes: CD19xCD3 Fab-scFv-Fab: two C19B Fabs, anti-CD3 scFv 40E9-L2H3-D105R.H; L234A/L235A
For B2, the EC50 [2] was 2.9 nM and the binding result [3] was “binds”.

B3: ATG201-N55S-19B (bispecific antibody, human IgG1, kappa, L234A L235A)
heavy 1: not shown
heavy 2: B2 heavy 2 with N292S, R342D
light: not shown
notes: CD19xCD3 Fab-scFv-Fab: two C19B Fabs, anti-CD3 scFv 40E9-L2H3-N55S.H; L234A/L235A
For B3, the EC50 [4] was 0.513 nM, the EC50 [5] was 0.442 nM and the EC50 [6] was 1.11 nM. B3: binds [3].

B4: ATG201-Y101F-19B (bispecific antibody, human IgG1, kappa, L234A L235A)
heavy 1: not shown
heavy 2: B2 heavy 2 with Y338F, R342D
light: not shown
notes: CD19xCD3 Fab-scFv-Fab: two C19B Fabs, anti-CD3 scFv 40E9-L2H3-Y101F.H; L234A/L235A
B4 was tested, and the EC50 [4] was 0.508 nM, the EC50 [5] was 0.359 nM and the EC50 [6] was 1.11 nM. B4: binds [3].

B5: ATG-Bis-40E9 (bispecific antibody)
VH: EVQLQQSGPELVKPGASVKMSCKASGYTFTSYVIHWVKQKTGQGLEWIGYFNPYNDGTKYNEEFKGKATLTSDKSSNTAYMELNSLTSDDSAVYFCARGGVRRYFDVWGAGTTVTVSS
VL: DIQMTQSPSSLSASLGERVSLTCRASQDIGSNLNWLQQEPDGTIKRLIYATFGLDSGVPKRFSGSRSGSDYSLTISSLESEDFVDYYCQQYASFPYTFGGGTKLEIK
scFv: EVQLQLSGPELVKPGASVKMSCKASGYTFSSYVIHWVKQKPGQGLEWIGYINPYNDVIKYNEKFKGKATLTSDKSSSTAYMELSSLTSEDSAVYYCARDSYYSYDGFAYWGQGTLVTVSAGGGGSGGGGSGGGGSGGGGSQIVLTQSPAIMSASPGEKVTMTCSASSSVSYMHWYQQKSGTSPKRWIYDTSKLASGVPARFSGSGSGTSYSLTISSMEAEDAATYYCQQWSSNPPTFGGGTKVEIK
notes: L234A/L235A; also called chimeric 2+1 bispecific antibody; parental antibody
B5: binds [7]; binds [1].

B6: Bis-GD2-Fab2-scFv (bispecific antibody)
VH: B1 VH 1
VL: B1 VL 1
scFv: B5 scFv
notes: Two anti-GD2 Fabs (humanized 3F8) and one anti-CD3 scFv (40-C12-C10-E9) joined by (GGGGS)2 linkers to CH1 of one Fab and to CH2; L234A/L235A; also called Fab-scFv-Fab GD2xCD3 bispecific antibody
B6: binds [1].

B7: Bis-40E9-L2H3-Y101F.H (bispecific antibody)
VH: EVQLVQSGAEVKKPGASVKVSCKASGYTFTSYVIHWVRQAPGQGLEWMGYFNPYNDGTKYNEEFKGRVTLTSDKSTSTAYMELRSLRSDDTAVYYCARGGVRRYFDVWGQGTTVTVSS
VL: DIQMTQSPSSLSASVGDRVTITCRASQDIGSNLNWLQQKPGKAIKRLIYATFGLDSGVPSRFSGSRSGTDFTLTISSLQPEDFATYYCQQYASFPYTFGGGTKVEIK
scFv: EVQLVQSGAEVKKPGSSVKVSCKASGYTFSSYVIHWVRQAPGQCLEWMGYINPYNDVIKYNEKFKGRVTLTSDKSTSTAYMELSSLRSEDTAVYYCARDSFYSYDGFAYWGQGTLVTVSSGGGGSGGGGSGGGGSGGGGSEIVLTQSPDFQSVTPKEKVTITCSASSSVSYMHWYQQKPDQSPKRLIYDTSKLASGVPSRFSGSGSGTDFTLTINSLEAEDAATYYCQQWSSNPPTFGCGTKVEIK
notes: L234A/L235A
B7: binds [8]; binds [9].

B8: Bis-40E9-L2H3-Y54G.H (bispecific antibody)
VH: B7 VH
VL: B7 VL
scFv: B7 scFv with Y54G, F101Y
notes: L234A/L235A
B8: binds [8]; binds [9].

B9: Bis-40E9-L2H3-D105R.H (bispecific antibody)
VH: B7 VH
VL: B7 VL
scFv: B7 scFv with F101Y, D105R
notes: L234A/L235A
B9: binds [8]; binds [9].
